Experimental data as given in paper PMC11993637.

Target: human hormone-sensitive lipase (HSL), adipocyte isoform (human)
Test: cryo-EM structure

- stoichiometry N: 2
Substance: human hormone-sensitive lipase (HSL), adipocyte isoform (enzyme)
